{"source": "patent US20220396632A1", "about": "(VERSEAU THERAPEUTICS, published 2022)", "key": {"[1]": {"biological_target": "T1, Biotin PSGL-1(42-62) peptide, unmodified (human, C-terminal Lys-biotin)", "T1 construct": "Residues 42-62 followed by GGGK-biotin; also called WT; wild-type", "T1 peptide": "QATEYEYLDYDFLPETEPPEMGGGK", "experiment": "ELISA, plate-bound peptide"}, "[2]": {"biological_target": "T2, PSGL-1 endogenously expressed on HL-60 cells (UniProt Q14242 42-412)", "T2 construct": "whole, on cells", "T2 sequence (looked up)": "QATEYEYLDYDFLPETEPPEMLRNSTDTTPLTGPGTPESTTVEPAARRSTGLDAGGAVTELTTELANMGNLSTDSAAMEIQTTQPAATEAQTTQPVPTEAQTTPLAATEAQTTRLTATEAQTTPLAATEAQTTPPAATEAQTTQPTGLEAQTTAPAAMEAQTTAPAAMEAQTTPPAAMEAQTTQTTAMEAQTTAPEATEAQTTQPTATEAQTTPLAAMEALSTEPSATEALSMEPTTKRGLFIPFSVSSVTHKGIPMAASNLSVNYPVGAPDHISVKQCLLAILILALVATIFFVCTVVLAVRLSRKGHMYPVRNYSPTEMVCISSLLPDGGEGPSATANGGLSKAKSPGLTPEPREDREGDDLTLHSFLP", "experiment": "flow cytometry on HL-60 cells"}, "[3]": {"biological_target": "T1, Biotin PSGL-1(42-62) peptide, unmodified", "experiment": "ELISA, plate-bound mAb captures biotin peptide", "in_short": "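Direct format: anti-PSGL-1 mAb at a single concentration (2–500 nM) or serially diluted (0.002–100 nM) on immobilized target, detected with HRP anti-IgG and TMB at A450; 45 min steps at 37° C. Capture format: coated mAb (3 ug/mL) binds biotinylated unmodified or sulfotyrosine peptide (3 nM–3 uM), detected with HRP-streptavidin.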"}}}
{"binder": "20I15 (antibody, V domains shown, From mouse immunisation; only variable domains given; also called 20115) VH: EVKLVESGGGLVQPGGSLSLSCAASGFTFTDYYMSWVRQPPGKALEWLGFIRNKANGYTTEYSASVKGRFTISRDNSQSILYLQMNALRAEDSATYYCARTYLRRGYFDVWGTGTTVTVSS VL: DIVLTQSPASLAVSLGQRATISCRASKSVSTSGYSYMHWFQQKPGQPPKLLIYLASNLESGVPARFSGSGSGTDFTLNIHPVEEEDAATYYCQHSRELPLTFGAGTKLELK", "values": [{"measurement": "fold weaker binding than to sulfotyrosine PSGL-1 42-62", "setting": "[1]", "result": "> 50", "unit": "fold"}, {"measurement": "EC50", "setting": "[2]", "result": 0.0014, "unit": "µM"}, {"measurement": "EC50", "setting": "[3]", "result": "~3", "unit": "µM"}]}
